Numbering of substitutions follows the chain as printed. Names may count otherwise.

In patent US20230174655A1 (published 2023) one finds Kd data, which are given here for 2 molecules.

Assay [1] addresses T1, FcγRIIa type H extracellular domain with C-terminal His tag (human, UniProt P12318 34-217).
T1 construct: extracellular domain; also called FcRIIaH; FcgRIIaH; not shown: His tag at the C terminus
T1 sequence (looked up): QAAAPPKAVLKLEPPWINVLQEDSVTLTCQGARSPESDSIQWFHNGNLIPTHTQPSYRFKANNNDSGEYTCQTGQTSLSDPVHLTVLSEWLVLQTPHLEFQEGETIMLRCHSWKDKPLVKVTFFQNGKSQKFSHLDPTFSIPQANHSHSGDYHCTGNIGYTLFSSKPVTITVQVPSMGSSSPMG
Briefly: SPR (Biacore), antibody captured, FcgR analyte. The text has this: (§1) In the table, SEQ ID NO refers to the SEQ ID NO of the H chain of the evaluated variant, and alteration refers to the alteration introduced into IL6R-B3 (SEQ ID NO: 40). […] Furthermore, KD(IIaR)/KD(IIb) and KD(IIaH)/KD(IIb) in the table respectively represent the value obtained by dividing the KD value of each variant for FcγRIIaR by the KD value of each variant for FcγRIIb, and the value obtained by dividing the KD value of each variant for FcγRIIaH by the KD value of each variant for FcγRIIb. KD(IIb) of the parent polypeptide/KD(IIb) of the altered polypeptide refers to the value obtained by dividing the KD value of the parent polypeptide for FcγRIIb by the KD value of each variant for FcγRIIb.
(§2) Kinetic analyses for calculating the KD values of each altered antibody for FcγR were performed according to the following method. First, antibodies of interest were captured onto the above-mentioned sensor chips, and an Fcγ receptor diluted with the running buffer was allowed to interact. The Biacore™ Evaluation Software was used to globally fit the measured results to the obtained sensorgram using the 1:1 Langmuir binding model, and the association rate constant ka (L/mol/s) and the dissociation rate constant kd (1/s) were calculated; and from those values the dissociation constants KD (mol/L) were calculated.
For orientation: SPR reads the build-up and loss of mass on a sensor chip optically.

The target of assay [2] is T2, FcγRIIa type R extracellular domain with C-terminal His tag (human, UniProt P12318 34-217).
T2 construct: extracellular domain; also called FcgRIIaR; FcγRIIa R; not shown: His tag at the C terminus
T2 sequence (looked up): T1 sequence (looked up) with H134R
Briefly: SPR (Biacore), antibody captured on chip, FcγR extracellular domain as analyte.
Excerpt: as §1, §2

B1: IL6R-BF146/IL6R-L (antibody, human IgG1, kappa)
heavy: QVQLQESGPGLVKPSETLSLTCAVSGHSISHDHAWSWVRQPPGEGLEWIGFISYSGITNYNPSLQGRVTISRDNSKNTLYLQMNSLRAEDTAVYYCARSLARTTAMDYWGEGTLVTVSSASTKGPSVFPLAPSSKSTSGGTAALGCLVKDYFPEPVTVSWNSGALTSGVHTFPAVLQSSGLYSLSSVVTVPSSSLGTQTYICNVNHKPSNTKVDKKVEPKSCDKTHTCPPCPAPEYLGDDSVFLFPPKPKDTLMISRTPEVTCVVVDVSHEDPEVKFNWYVDGVEVHNAKTKPREEQYNSTYRVVSVLTVLHQDWLNGKEYKCKVSNAALPAPIEKTISKAKGQPREPQVYTLPPSRDELTKNQVSLTCLVKGFYPSDIAVEWESNGQPENNYKTTPPVLDSDGSFFLYSKLTVDKSRWQQGNVFSCSVMHEALHNHYTQESLSLSP
light: not shown
notes: alteration printed: L234Y/G237D/P238D/K326A; copies: 2 + 2
Consider B1, for which the Kd in assay [1] amounted to 10 µM.

B2: IL6R-BP142/IL6R-L (antibody, human IgG1, kappa)
heavy: B1 heavy with Y236L, D239G, A328N
light: not shown
notes: IgG1; P238D/K326N (EU) introduced into IL6R-B3
In turn, B2 yielded a Kd in assay [2] of 16 µM.

For orientation: Kd means the free concentration of one partner at which half of the binding sites on the other are occupied at equilibrium, for simple one-to-one binding. A low value points to tighter binding.
